The target of this test is CD38 protein on the surfaces of Raji cells, Daudi cells, Ramos cells and RPMI8226 cells (human, UniProt P28907 1-300). As to the kind of experiment: cell-based or functional assay.

B1: antibody SG003 (antibody, human IgG1, kappa, V domains shown)
VH: QVQLLESGGGLVQPGGSLKLSCVASGFDFSLYWMNWVRQAPGKGLEWIGKINPDSSTINYTPSLKDKFFISRDNAKNTLYLQMTKVRSEDTALYYCARLWIATGGFDYWGQGTTLTVSS
VL: EIVMTQSPASLSASLGQRATISCRASSSVSSSAFSYVHWYQQKSGQPPKLLIYLASNLESGVPARFSGSGSGTDFTLTIHPVESEDVATYYCHHSRELPFTFGSGTKLEIKR
B1: the “ADCC activity, EC50 (Daudi target cells, NK92MI-CD16a effector cells, LDH release)” value was found to be 0.72 ng/mL; the “ADCC activity, EC50 (RPMI8226 target cells, NK92MI-CD16a effector cells, LDH release)” value turned out to be 1.46 ng/mL; the “ADCC activity, EC50 (Raji target cells, NK92MI-CD16a effector cells, LDH release)” value turned out to be 6.97 ng/mL.

(Values after patent US20210024645A1 (HANGZHOU SUMGEN BIOTECH, published 2021).)
